Reference: publication PMC9482650, “Quantitative fragmentomics allow affinity mapping of interactomes” (Nature Communications, 2022)

Columns and labels:
Assay in all cases: holdup assay
Parameters in all cases: key: below the threshold = too weak to quantify, mostly under pKd 3.1 to 4
[1] = target: Inadl_6, Q8NI35
[2] = target: T1, SNTG1, Q9NSN8
T1 sequence (Q9NSN8 52-150, limits assumed, looked up): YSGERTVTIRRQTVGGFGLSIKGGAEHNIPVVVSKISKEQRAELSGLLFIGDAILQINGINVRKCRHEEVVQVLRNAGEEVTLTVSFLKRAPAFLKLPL

[3] = target: IL16_3, Q14005
[4] = target: T2, SIPA1L2, Q9P2F8
T2 sequence (Q9P2F8 945-1036, limits assumed, looked up): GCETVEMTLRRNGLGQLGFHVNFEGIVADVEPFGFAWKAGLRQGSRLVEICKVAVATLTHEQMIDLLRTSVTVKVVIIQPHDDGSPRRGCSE

[5] = target: LIMK2, P53671
[6] = target: LAP2, Q96RT1
[7] = target: T3, MPDZ_10, O75970
T3 sequence (O75970 1624-1722, limits assumed, looked up): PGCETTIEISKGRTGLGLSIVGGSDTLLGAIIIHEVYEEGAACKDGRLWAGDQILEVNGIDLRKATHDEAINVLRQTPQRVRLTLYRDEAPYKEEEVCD

[8] = target: HTRA1, Q92743
[9] = target: T4, GRIP1_7, Q9Y3R0
T4 sequence (Q9Y3R0 999-1096, limits assumed, looked up): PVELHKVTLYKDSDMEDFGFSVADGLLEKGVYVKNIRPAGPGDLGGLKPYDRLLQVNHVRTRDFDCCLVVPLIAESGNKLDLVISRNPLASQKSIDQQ

[10] = target: T5, LIN7A, O14910
T5 sequence (O14910 103-200, limits assumed, looked up): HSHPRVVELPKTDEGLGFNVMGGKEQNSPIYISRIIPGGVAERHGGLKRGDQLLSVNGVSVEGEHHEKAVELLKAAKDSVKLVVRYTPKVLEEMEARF

[11] = target: TJP1_2, Q07157
[12] = target: T6, PCLO, Q9Y6V0
T6 sequence (Q9Y6V0 4491-4600, limits assumed, looked up): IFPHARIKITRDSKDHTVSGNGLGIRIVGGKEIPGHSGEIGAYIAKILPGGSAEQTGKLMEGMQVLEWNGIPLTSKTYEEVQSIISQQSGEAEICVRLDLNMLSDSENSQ

[13] = target: DLG2_3, Q15700
[14] = target: GRID2IP_2, A4D2P6
[15] = target: T7, GRIP1_4, Q9Y3R0
T7 sequence (Q9Y3R0 467-571, limits assumed, looked up): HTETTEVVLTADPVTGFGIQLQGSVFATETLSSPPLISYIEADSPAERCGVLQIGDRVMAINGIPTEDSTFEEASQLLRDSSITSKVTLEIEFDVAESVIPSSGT

[16] = target: ARHGEF12, Q9NZN5-2
[17] = target: T8, APBA2_2, Q99767
T8 sequence (Q99767 654-744, limits assumed, looked up): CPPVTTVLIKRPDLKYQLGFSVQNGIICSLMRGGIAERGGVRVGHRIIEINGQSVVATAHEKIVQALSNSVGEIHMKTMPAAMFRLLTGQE

[18] = target: T9, CARD11, Q9BXL7
T9 sequence (Q9BXL7 662-765, limits assumed, looked up): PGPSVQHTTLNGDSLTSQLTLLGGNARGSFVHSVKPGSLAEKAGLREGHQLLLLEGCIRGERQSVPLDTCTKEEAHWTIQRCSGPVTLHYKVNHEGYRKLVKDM

[19] = target: NHERF4_1, Q86UT5-2
[20] = target: T10, PDZD2_2, O15018
T10 sequence (O15018 329-429, limits assumed, looked up): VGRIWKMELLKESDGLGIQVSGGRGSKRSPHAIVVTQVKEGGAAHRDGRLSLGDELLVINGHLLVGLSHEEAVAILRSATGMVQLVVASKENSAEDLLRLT

[21] = target: T11, RADIL, Q96JH8
T11 sequence (Q96JH8 971-1071, limits assumed, looked up): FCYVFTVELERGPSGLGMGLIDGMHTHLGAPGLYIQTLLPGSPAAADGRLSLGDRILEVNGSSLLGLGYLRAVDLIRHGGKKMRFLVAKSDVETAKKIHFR

[22] = target: T12, HTRA3, P83110
T12 sequence (P83110 354-453, limits assumed, looked up): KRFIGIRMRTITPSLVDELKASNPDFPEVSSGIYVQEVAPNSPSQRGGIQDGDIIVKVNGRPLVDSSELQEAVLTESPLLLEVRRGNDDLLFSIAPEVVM

[23] = target: T13, SHANK1, Q9Y566
T13 sequence (Q9Y566 658-767, limits assumed, looked up): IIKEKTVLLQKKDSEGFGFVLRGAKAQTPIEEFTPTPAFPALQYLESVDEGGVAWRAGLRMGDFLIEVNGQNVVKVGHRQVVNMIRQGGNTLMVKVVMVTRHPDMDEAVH

[24] = plain residues with an end cap or a label only (N-terminal biotin on a linker: ado-ado)
[25] = plain residues with an end cap or a label only (N-terminal biotin on a linker: ttds)
[26] = plain residues with an end cap or a label only (N-terminal biotin on a linker: ahx)

Sequence of LIMK2, P53671 (P53671 143-248): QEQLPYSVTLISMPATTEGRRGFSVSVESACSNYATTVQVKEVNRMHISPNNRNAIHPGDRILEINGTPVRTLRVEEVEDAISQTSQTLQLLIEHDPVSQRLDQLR
Sequence of NHERF4_1, Q86UT5-2 (Q86UT5 other isoform, or with tags, fused parts or gaps): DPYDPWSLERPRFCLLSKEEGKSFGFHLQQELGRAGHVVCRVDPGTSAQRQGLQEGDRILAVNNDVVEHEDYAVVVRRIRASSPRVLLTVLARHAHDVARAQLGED
Sequence of LAP2, Q96RT1 (Q96RT1 other isoform, or with tags, fused parts or gaps): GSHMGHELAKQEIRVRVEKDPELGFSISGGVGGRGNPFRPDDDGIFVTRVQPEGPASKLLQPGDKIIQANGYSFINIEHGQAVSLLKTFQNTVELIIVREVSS
Sequence of Inadl_6, Q8NI35 (Q8NI35 1058-1167): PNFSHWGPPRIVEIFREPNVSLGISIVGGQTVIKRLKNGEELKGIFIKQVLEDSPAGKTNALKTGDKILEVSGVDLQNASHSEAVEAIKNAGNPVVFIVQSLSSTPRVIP
Sequence of ARHGEF12, Q9NZN5-2 (Q9NZN5 other isoform, or with tags, fused parts or gaps): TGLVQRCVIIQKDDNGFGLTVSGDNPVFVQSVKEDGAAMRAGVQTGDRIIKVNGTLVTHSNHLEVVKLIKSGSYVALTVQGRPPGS
Sequence of TJP1_2, Q07157 (Q07157 181-274): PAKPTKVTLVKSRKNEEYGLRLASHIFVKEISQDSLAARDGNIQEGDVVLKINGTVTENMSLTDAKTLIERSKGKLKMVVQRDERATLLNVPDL
Sequence of GRID2IP_2, A4D2P6 (A4D2P6 272-370): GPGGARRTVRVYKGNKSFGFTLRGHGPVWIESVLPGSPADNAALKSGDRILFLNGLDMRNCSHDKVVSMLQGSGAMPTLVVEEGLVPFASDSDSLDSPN
Sequence of HTRA1, Q92743 (Q92743 360-477): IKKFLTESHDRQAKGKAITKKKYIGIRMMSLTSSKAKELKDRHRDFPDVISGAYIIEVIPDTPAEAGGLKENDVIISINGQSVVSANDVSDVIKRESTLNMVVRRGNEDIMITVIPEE
Sequence of IL16_3, Q14005 (Q14005 1107-1207): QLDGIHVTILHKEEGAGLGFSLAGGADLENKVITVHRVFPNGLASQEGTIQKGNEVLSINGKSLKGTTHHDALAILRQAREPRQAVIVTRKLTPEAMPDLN

EKPIDSETKM [SLC1A3, P43003]
pKd [1, 24]: below the threshold | pKd [2, 24]: below the threshold | pKd [3, 24]: below the threshold | pKd [4, 24]: below the threshold | pKd [5, 24]: below the threshold | pKd [6, 24]: below the threshold | pKd [7, 24]: below the threshold | pKd [8, 24]: below the threshold | pKd [9, 24]: below the threshold | pKd [10, 24]: below the threshold | pKd [11, 24]: below the threshold | pKd [12, 24]: below the threshold | pKd [13, 24]: below the threshold | pKd [14, 24]: below the threshold | pKd [15, 24]: below the threshold | pKd [16, 24]: below the threshold | pKd [17, 24]: below the threshold | pKd [18, 24]: below the threshold | pKd [19, 24]: below the threshold | pKd [20, 24]: below the threshold | pKd [21, 24]: below the threshold | pKd [22, 24]: below the threshold | pKd [23, 24]: 3.76

SHSSKGETAV [FZD7, O75084]
pKd [1, 25]: below the threshold | pKd [2, 25]: 4.32 | pKd [3, 25]: below the threshold | pKd [4, 25]: below the threshold | pKd [5, 25]: below the threshold | pKd [6, 25]: 4.04 | pKd [7, 25]: below the threshold | pKd [8, 25]: below the threshold | pKd [9, 25]: below the threshold | pKd [10, 25]: below the threshold | pKd [11, 25]: below the threshold | pKd [12, 25]: below the threshold | pKd [13, 25]: 4.32 | pKd [14, 25]: below the threshold | pKd [15, 25]: below the threshold | pKd [16, 25]: 3.97 | pKd [17, 25]: below the threshold | pKd [18, 25]: 3.67 | pKd [19, 25]: below the threshold | pKd [20, 25]: 4.09 | pKd [21, 25]: below the threshold | pKd [22, 25]: 3.96 | pKd [23, 25]: below the threshold

DAAHHDESNC [FMNL3, Q8IVF7]
pKd [1, 24]: below the threshold | pKd [2, 24]: below the threshold | pKd [3, 24]: below the threshold | pKd [4, 24]: below the threshold | pKd [5, 24]: below the threshold | pKd [6, 24]: below the threshold | pKd [7, 24]: below the threshold | pKd [8, 24]: 3.76 | pKd [9, 24]: below the threshold | pKd [10, 24]: below the threshold | pKd [11, 24]: below the threshold | pKd [12, 24]: below the threshold | pKd [13, 24]: 3.62 | pKd [14, 24]: below the threshold | pKd [15, 24]: below the threshold | pKd [16, 24]: below the threshold | pKd [17, 24]: below the threshold | pKd [18, 24]: below the threshold | pKd [19, 24]: below the threshold | pKd [20, 24]: 4.13 | pKd [21, 24]: below the threshold | pKd [22, 24]: below the threshold | pKd [23, 24]: below the threshold

PFRSRSPSEV [GPR6, P46095]
pKd [1, 25]: below the threshold | pKd [2, 25]: below the threshold | pKd [3, 25]: below the threshold | pKd [4, 25]: below the threshold | pKd [5, 25]: below the threshold | pKd [6, 25]: below the threshold | pKd [7, 25]: below the threshold | pKd [8, 25]: below the threshold | pKd [9, 25]: 3.63 | pKd [10, 25]: below the threshold | pKd [11, 25]: below the threshold | pKd [12, 25]: below the threshold | pKd [13, 25]: 3.68 | pKd [14, 25]: below the threshold | pKd [15, 25]: below the threshold | pKd [16, 25]: below the threshold | pKd [17, 25]: below the threshold | pKd [18, 25]: below the threshold | pKd [19, 25]: below the threshold | pKd [20, 25]: 3.8 | pKd [21, 25]: below the threshold | pKd [22, 25]: below the threshold | pKd [23, 25]: below the threshold

KLVIKTETTV [RASSF6, Q6ZTQ3]
pKd [1, 25]: below the threshold | pKd [2, 25]: 4.16 | pKd [3, 25]: below the threshold | pKd [4, 25]: below the threshold | pKd [5, 25]: below the threshold | pKd [6, 25]: below the threshold | pKd [7, 25]: below the threshold | pKd [8, 25]: 3.75 | pKd [9, 25]: 3.72 | pKd [10, 25]: 3.65 | pKd [11, 25]: below the threshold | pKd [12, 25]: below the threshold | pKd [13, 25]: 4.49 | pKd [14, 25]: below the threshold | pKd [15, 25]: below the threshold | pKd [16, 25]: 3.82 | pKd [17, 25]: below the threshold | pKd [18, 25]: below the threshold | pKd [19, 25]: below the threshold | pKd [20, 25]: 3.65 | pKd [21, 25]: below the threshold | pKd [22, 25]: below the threshold | pKd [23, 25]: below the threshold

KEYDDELTFF [USH1C, Q9Y6N9]
pKd [1, 26]: 3.71 | pKd [2, 26]: below the threshold | pKd [3, 26]: below the threshold | pKd [4, 26]: below the threshold | pKd [5, 26]: below the threshold | pKd [6, 26]: below the threshold | pKd [7, 26]: below the threshold | pKd [8, 26]: 4.3 | pKd [9, 26]: below the threshold | pKd [10, 26]: below the threshold | pKd [11, 26]: below the threshold | pKd [12, 26]: below the threshold | pKd [13, 26]: below the threshold | pKd [14, 26]: below the threshold | pKd [15, 26]: below the threshold | pKd [16, 26]: below the threshold | pKd [17, 26]: below the threshold | pKd [18, 26]: below the threshold | pKd [19, 26]: 3.6 | pKd [20, 26]: 3.75 | pKd [21, 26]: 3.78 | pKd [22, 26]: below the threshold | pKd [23, 26]: 5.25
